In article PMC4692362:

Target: FLAG-Nrxn1β(−SS4) (UniProt Q63373)
Assay: cell surface binding with Scatchard analysis

Kd: 2.22 nM
Substance: SorCS1-ecto-His (from UniProt Q9JLC4 34-1098) (domain or fragment)
